T1: human podoplanin D82A (human, UniProt Q86YL7 23-162)
T1 construct: Alanine point mutant tested by flow cytometry
T1 chain: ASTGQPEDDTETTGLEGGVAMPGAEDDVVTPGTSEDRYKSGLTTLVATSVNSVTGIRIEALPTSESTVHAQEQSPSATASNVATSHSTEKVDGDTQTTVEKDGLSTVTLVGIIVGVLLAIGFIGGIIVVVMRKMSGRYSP

T2: human podoplanin E81A (human, UniProt Q86YL7 23-162)
T2 construct: Alanine point mutant tested by flow cytometry
T2 chain: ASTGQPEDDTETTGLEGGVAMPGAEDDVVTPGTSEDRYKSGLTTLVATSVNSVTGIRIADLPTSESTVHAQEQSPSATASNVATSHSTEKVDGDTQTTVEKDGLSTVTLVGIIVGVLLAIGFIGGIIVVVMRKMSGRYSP

T3: human podoplanin I78A (human, UniProt Q86YL7 23-162)
T3 construct: Alanine point mutant tested by flow cytometry
T3 chain: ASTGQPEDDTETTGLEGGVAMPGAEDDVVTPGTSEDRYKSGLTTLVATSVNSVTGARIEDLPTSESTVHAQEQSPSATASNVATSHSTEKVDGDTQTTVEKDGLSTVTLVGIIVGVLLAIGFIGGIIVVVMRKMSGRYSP

T4: human podoplanin I80A (human, UniProt Q86YL7 23-162)
T4 construct: Alanine point mutant tested by flow cytometry
T4 chain: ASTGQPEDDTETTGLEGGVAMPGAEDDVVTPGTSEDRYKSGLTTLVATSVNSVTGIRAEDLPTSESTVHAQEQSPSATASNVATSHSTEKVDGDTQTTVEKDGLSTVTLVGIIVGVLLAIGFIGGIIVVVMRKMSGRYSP

T5: human podoplanin T85A (human, UniProt Q86YL7 23-162)
T5 chain: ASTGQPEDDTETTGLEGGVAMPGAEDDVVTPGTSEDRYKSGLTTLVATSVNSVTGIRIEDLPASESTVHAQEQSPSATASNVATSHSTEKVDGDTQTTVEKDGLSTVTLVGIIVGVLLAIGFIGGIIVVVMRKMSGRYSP

T6: human podoplanin on cancer cells (glioblastoma LN319, lung cancer PC-10) (human, UniProt Q86YL7 23-162, sialylated O-glycan on Thr85 (as the filing concludes for podoplanin on cancer cells))
T6 construct: Endogenous podoplanin on cancer cell lines LN319 and PC-10; also called hPDPN; cancer-type podoplanin
T6 chain: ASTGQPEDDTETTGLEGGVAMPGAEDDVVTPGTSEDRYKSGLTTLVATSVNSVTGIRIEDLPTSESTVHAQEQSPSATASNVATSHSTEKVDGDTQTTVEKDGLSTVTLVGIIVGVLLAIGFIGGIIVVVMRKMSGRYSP


Assays:
[1] = target: T1, human podoplanin D82A; experiment: flow cytometry, alanine scan 77-89
[2] = target: T2, human podoplanin E81A; experiment: flow cytometry, alanine scan 77-89
[3] = target: T3, human podoplanin I78A; experiment: flow cytometry, alanine scan 77-89
[4] = target: T4, human podoplanin I80A; experiment: flow cytometry, alanine scan 77-89
[5] = target: T5, human podoplanin T85A; experiment: flow cytometry, alanine scan 77-89
[6] = target: T6, human podoplanin on cancer cells …; experiment: flow cytometry, ExpiCHO culture supernatant on LN319 cells
Procedure: Plasmids of the H chain and the L chain of chPMab117-mG2a were introduced into ExpiCHO cell lines (product of Thermo Fisher) by lipofection and a recombinant antibody of chPMab117-mG2a was expressed in the culture supernatant. The culture supernatant was collected two days after gene introduction. It was reacted with LN 319 cells at 4° C. for 30 minutes and was then reacted further with an anti-mouse IgG-FITC antibody (product of Thermo Fisher) at 4° C. for 30 minutes. As a negative control, only a secondary antibody was used.

Row | binding result [1] | binding result [2] | binding result [3] | binding result [4] | binding result [5] | binding result [6] | Binder
1 | no binding (tested: 10 µg/mL) | no binding (tested: 10 µg/mL) | no binding (tested: 10 µg/mL) | no binding (tested: 10 µg/mL) | no binding (tested: 10 µg/mL) |  | human chimeric PMab-117 (chPMab-117) (antibody, human IgG1) heavy: not shown light: DVVLTQTPVAQPVTLGDQASISCRSSQSLVHSNGNTYLEWYLQKPGQSPQLLIYKVSNRFSGVPDRFIGSGSGSDFTLKISRVEPEDLGVYYCFQVTHDPFTFGSGTKLEIKRGSAAPSVFIFPPSDEQLKSGTASVVCLLNNFYPREAKVQWKVDNALQSGNSQESVTEQDSKDSTYSLSSTLTLSKADYEKHKVYACEVTHQGLSSPVTKSFNRGEC
2 |  |  |  |  |  | binds | mouse chimeric PMab-117 (chPMab117-mG2a) (antibody, mouse IgG2a, kappa, tested as ExpiCHO culture supernatant; no limits stated) heavy: AVQLVESGGGLVQPKESLKISCAASGFTFSNAAMYWVRQAPGKGLEWVARIRSKPNNYATYYTDSVKGRFTISRDDSKSMVHLQMDNLKTEDTAMYYCTVGGNNYAAAYWGQGTLVTVSSAKTTAPSVYPLAPVCGDTTGSSVTLGCLVKGYFPEPVTLTWNSGSLSSGVHTFPAVLQSDLYTLSSSVTVTSSTWPSQSITCNVAHPASSTKVDKKIEPRGPTIKPCPPCKCPAPNLLGGPSVFIFPPKIKDVLMISLSPIVTCVVVDVSEDDPDVQISWFVNNVEVHTAQTQTHREDYNSTLRVVSALPIQHQDWMSGKEFKCKVNNKDLPAPIERTISKPKGSVRAPQVYVLPPPEEEMTKKQVTLTCMVTDFMPEDIYVEWTNNGKTELNYKNTEPVLDSDGSYFMYSKLRVEKKNWVERNSYSCSVVHEGLHNHHTTKSFSRTPGK light: DVVLTQTPVAQPVTLGDQASISCRSSQSLVHSNGNTYLEWYLQKPGQSPQLLIYKVSNRFSGVPDRFIGSGSGSDFTLKISRVEPEDLGVYYCFQVTHDPFTFGSGTKLEIKRADAAPTVSIFPPSTEQLATGGASVVCLMNNFYPRDISVKWKIDGTERRDGVLDSVTDQDSKDSTYSMSSTLSLTKADYESHNLYTCEVVHKTSSSPVVKSFNRNEC

Source: patent US20210115151A1 (TOHOKU UNIVERSITY, published 2021)
